Numbering of substitutions follows the chain as printed. Names and notes keep the numbering of the source.
Assays:
[1] = molecular target: fusion glycoprotein (F) of MPV A GFP (Tables 41 and 43) (metapneumovirus A); assay: cell-based or functional assay
[2] = molecular target: T1, biot-RSV-F wt (respiratory syncytial virus (RSV)); assay: BLI, SA sensor loaded with biot-RSV-F wt, mAb 5 ug/ml, 4 min association, 6 min dissociation
[3] = molecular target: T1, biot-RSV-F wt; assay: BLI (Octet), biotinylated F on SA sensors, mAb 5 µg/ml
[4] = molecular target: T2, RSV F expressed on transfected Expi293F cells (respiratory syncytial virus (RSV)); assay: flow cytometry, transfected Expi293F cells, fixed and permeabilised
[5] = molecular target: fusion glycoprotein (F) of RSV B GFP (Tables 41 and 42) (respiratory syncytial virus B); assay: cell-based or functional assay
[6] = molecular target: fusion glycoprotein (F) of RSV A GFP (Tables 41 and 42) (respiratory syncytial virus A); assay: cell-based or functional assay
[7] = molecular target: T3, DS-Cav1 RSV F (respiratory syncytial virus); assay: ELISA on DS-Cav1 RSV F
T3 construct: also called DC-VCav1

[8] = molecular target: T4, MPV fusion glycoprotein with the D280N mutation (MPV-F N280) (metapneumovirus); assay: biolayer interferometry (BLI), rIgG1 with M428L/N434S
T4 construct: also called MPV F D280N; MPV-F D280N

[9] = molecular target: RSV fusion glycoprotein (RSV-F) (respiratory syncytial virus); assay: as above
[10] = molecular target: T5, MPV fusion glycoprotein without the D280N mutation (MPV-F D280) (metapneumovirus); assay: as above
T5 construct: also called MPV F Non-D280N; MPV-F wt

[11] = molecular target: fusion glycoprotein (F) of the RSV used in the GFP-based neutralization assay of Table 23 (respiratory syncytial virus); assay: cell-based or functional assay
[12] = molecular target: fusion glycoprotein (F) of the MPV (non-D280N) used in the GFP-based neutralization assay of Table 23 (metapneumovirus); assay: cell-based or functional assay
[13] = molecular target: T1, biot-RSV-F wt; assay: BLI, SA sensor loaded with biot-RSV-F wt, mAb 5 ug/ml, 4 min association, 6 min dissociation; remark: listed apart in the source
[14] = molecular target: T2, RSV F expressed on transfected Expi293F …; assay: flow cytometry, transfected Expi293F cells, fixed and permeabilised; remark: listed apart in the source

B1: MPK190-v1.1-rIgG1m17,1-LS (antibody, V domains shown)
VH: QVQLVESGGGLVKPGGSLTLSCAASGFSISGYGMNWVRQAPGRGLEWVASISASSTYIYYADSMKGRFTISRDNGKTSLYLQMKSLRAEDTAVYYCARAPIEPPYFDLWGRGTLVTVSS
VL: QSVLTQPPSVSGAPGQRVTISCTGSNSNIGAGYDVHWYQHLPGKAPKVLIYGNNNRPSVVPDRFSGSNSGASASLAISGLQAEDEADYFCQSYDRRLSGPIFGGGTKLTVL
notes: also called MPK190-v1.1-rIgG1-LS
- IC50 (ng/ml), MPV A GFP neutralization [1]: 4.03 ng/mL
- Kd [2]: < 0.001 nM
- Kd [3]: < 0.001 nM
- Binding (FACS) relative to parental mAb MPK190-v1.1 [4]: 1
- IC50 (ng/ml), RSV B GFP neutralization [5]: 3.39 ng/mL
- IC50 (ng/ml), RSV A GFP neutralization [6]: 3.54 ng/mL

B2: MPK190-v1.3-rIgG1m17,1-LS (antibody, V domains shown)
VH: B1 VH
VL: QSVLTQPPSVSGAPGQRVTISCTGSSSNIGAGYDVHWYQHLPGKAPKVLIYGNTNRPSVVPDRFSGSNSGASASLAISGLQAEDEADYFCQSYDRRLSGPIFGGGTKLTVLG
notes: also called MPK190-v1.3-rIgG1-LS
- IC50 (ng/ml), MPV A GFP neutralization [1]: 5.99 ng/mL
- Kd [2]: < 0.001 nM
- Kd [3]: < 0.001 nM
- Binding (FACS) relative to parental mAb MPK190-v1.1 [4]: 0.9
- IC50 (ng/ml), RSV B GFP neutralization [5]: 2.38 ng/mL
- IC50 (ng/ml), RSV A GFP neutralization [6]: 3.18 ng/mL

B3: MPH12-v28 (VH-FRGL-S63A/VL-S26A) (antibody, V domains shown)
VH: QVQLVESGGGLVKPGGSLRLSCAASGFTFSGFYMKWIRQAPGKGLEWVSSISASGSYTNYADAVEGRFTISRDNAKNSLYLQMNSLRAEDTAVYYCARGDSYCGASACHGEFFHKWGQGTLVTVSS
VL: QSVLTQPPSVSGAPGQRVTISCTGSDANIGADFDVHWYQQLPGTAPKLLIYGNINRPSGVPDRFSGSRSGTSAFLAITRLQAEDEADYYCQSYDRSLHYVFGAGTKVTVL
notes: also called MPH12 VH-FRGL-S63A / MPH12 VL-S26A
- EC50 [7]: 32.2 ng/mL
- Kd [8]: 0.74 nM
- Kd [9]: 0.38 nM
- Kd [10]: 0.045 nM
- RSV IC 50 (ng/mL), GFP-based in vitro neutralization [11]: 59.4 ng/mL
- MPV IC50 (ng/mL), GFP-based in vitro neutralization [12]: 26.3 ng/mL

B4: MPK104-v1.3-rIgG1m17,1-LS (antibody, V domains shown)
VH: QVQLVESGGGLVKPGGSLRLSCAASGFTIDGYGMNWVRQAPGKGLEWVSSISASSNYIYYADSMKGRFTISRDNGKNSLYLQMHSLRVEDTGVYYCARAPLEPPYFDLWGRGTLVTVSS
VL: QSVLTQPPSVSGAPGQRVTISCSGGSSNIGAGYDVHWYQQVPGKGPKVLIYGNTNRPSGVPDRFSGSNFGASASLAITGLQAEDEADYFCQSYDRRLGGPVFGGGTKLTVL
notes: also called MPK104-v1.3-rIgG1-LS
- IC50 (ng/ml), MPV A GFP neutralization [1]: 5.57 ng/mL
- Kd [13]: 0.0924 nM
- Kd [3]: 0.209 nM
- Binding (FACS) relative to parental mAb MPK104-v1.1 [14]: 1.1
- IC50 (ng/ml), RSV B GFP neutralization [5]: 6.49 ng/mL
- IC50 (ng/ml), RSV A GFP neutralization [6]: 2.71 ng/mL

B5: MPK104-v1.1-rIgG1m17,1-LS (antibody, V domains shown)
VH: B4 VH
VL: B4 VL with T54N, E83D
notes: called the parental mAb (v1.1)
- Kd [13]: 0.0649 nM
- Binding (FACS) relative to parental mAb MPK104-v1.1 [14]: 1

Source: patent US20260028391A1 (HUMABS BIOMED, published 2026)
